Biological target: endogenous Maf1 (human (endogenous in HeLa)) (UniProt Q9H063)
Experiment: co-IP; HeLa (cell line 9-8) whole cell extract, immunoprecipitation with anti-Maf1 or anti-GAPDH antibodies; immunoblot with anti-RPC1, anti-Brf1, anti-Maf1

Chain of endogenous Maf1 (human (endogenous in HeLa)) (Q9H063 whole entry): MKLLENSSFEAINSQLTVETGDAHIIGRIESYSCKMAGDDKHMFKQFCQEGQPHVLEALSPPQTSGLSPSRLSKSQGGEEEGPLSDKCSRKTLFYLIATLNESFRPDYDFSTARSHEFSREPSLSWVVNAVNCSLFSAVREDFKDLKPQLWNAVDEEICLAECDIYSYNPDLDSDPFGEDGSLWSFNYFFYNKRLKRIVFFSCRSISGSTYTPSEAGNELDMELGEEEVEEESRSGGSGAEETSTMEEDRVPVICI

Q: Which percent of RPC1 co-immunoprecipitated does the source give for “RPC1, the largest subunit of pol III (endogenous, HeLa) (from UniProt O14802 1-1390) (natural protein)” here?
A: 6%

— article PMC1762419
